One experiment deals with T1, GIPR Y73H (human) (UniProt P48546).
T1 sequence: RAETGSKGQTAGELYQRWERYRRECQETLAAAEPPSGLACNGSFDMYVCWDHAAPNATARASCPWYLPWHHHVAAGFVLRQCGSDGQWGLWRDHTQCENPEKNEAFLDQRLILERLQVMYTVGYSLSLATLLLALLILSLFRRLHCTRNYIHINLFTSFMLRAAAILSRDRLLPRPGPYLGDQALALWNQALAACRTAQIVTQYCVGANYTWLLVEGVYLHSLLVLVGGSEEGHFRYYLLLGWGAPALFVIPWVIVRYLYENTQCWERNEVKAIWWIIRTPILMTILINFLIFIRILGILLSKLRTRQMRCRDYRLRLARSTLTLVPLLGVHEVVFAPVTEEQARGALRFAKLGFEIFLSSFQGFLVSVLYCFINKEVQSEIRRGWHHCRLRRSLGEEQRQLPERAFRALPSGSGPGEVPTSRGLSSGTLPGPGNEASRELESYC

The next experiment deals with T2, GIPR G449A (human) (UniProt P48546).
T2 sequence: T1 sequence with H52Y, G428A

Changes are numbered by the printed parent chain.

As to “β-arrestin 2 (Rluc8-Arrestin-3-Sp1) (from UniProt P32121 1-409) (natural protein)”, the results for the β-arrestin 2 recruitment (BRET) on stimulation with GIP(1-42): logEC50 (Arrestin) (log M (inferred)) in the experiment with GIPR Y73H (human) and with GIPR G449A (human) were -9.11 and -9.24, respectively.
